Reference: the Human Domainome abundance scans (Beltran et al. 2025)
± gives the uncertainty stated by the source.

B1: Ankyrin-2, residues 3571 to 3650; numbered along this chain, Q01484 (parent)
chain: ERLAYIADHLGFSWTELARELDFTEEQIHQIRIENPNSLQDQSHALLKYWLERDGKHATDTNLVECLTKINRMDIVHLME

Variants of: B1
Experiment: abundance fitness (aPCA) (normalised: wild type 0, dead -1); higher = more abundant; growth selection in yeast, the domain comes from the species named
Conditions: Homo sapiens

Variant	abundance fitness
A18P	-1.17 ± 0.22
A18G	-0.128 ± 0.1
A18V	-0.687 ± 0.12
A18T	-0.903 ± 0.35
A18R	-1.37 ± 0.3
A18M	-0.519 ± 0.19
A18W	-0.859 ± 0.34
A18S	-0.196 ± 0.089
A18F	-1.07 ± 0.42
A18L	-1.03 ± 0.16
A18D	-0.514 ± 0.38
H9P	-0.268 ± 0.17
H9C	0.006 ± 0.4
H9Y	-0.409 ± 0.4
H9R	-0.032 ± 0.22
H9T	-0.33 ± 0.24
H9K	-0.232 ± 0.34
H9G	-0.025 ± 0.2
H9D	0.021 ± 0.088
H9V	-0.043 ± 0.38
H9L	-0.02 ± 0.2
H9A	-0.113 ± 0.24
H29I	-0.082 ± 0.079
H29A	-0.013 ± 0.057

Variant	abundance fitness
H29D	-0.079 ± 0.18
H29K	-0.004 ± 0.18
H29E	-0.041 ± 0.17
H29F	0.062 ± 0.25
H29G	0.027 ± 0.065
H29C	-0.07 ± 0.15
E26Y	-0.118 ± 0.14
E26M	-0.041 ± 0.098
E26R	-0.068 ± 0.044
E26H	0.039 ± 0.13
E26D	-0.053 ± 0.12
E26Q	-0.129 ± 0.17
E26L	-0.057 ± 0.059
E26F	-0.282 ± 0.17
E26A	-0.087 ± 0.068
E26G	-0.059 ± 0.046
E26C	-0.209 ± 0.092
E26K	0.035 ± 0.1
E26W	-0.105 ± 0.069
E26N	-0.033 ± 0.11
E26P	-0.086 ± 0.064
E26I	-0.045 ± 0.14
E26S	-0.091 ± 0.057
E26T	-0.027 ± 0.066

Variant	abundance fitness
R19F	-0.195 ± 0.15
R19M	0.083 ± 0.19
R19W	0.001 ± 0.075
R19I	0.049 ± 0.2
R19Y	-0.396 ± 0.44
R19G	-0.004 ± 0.057
R19P	-0.208 ± 0.059
R19N	0.015 ± 0.16
R19A	-0.076 ± 0.091
R19H	0.028 ± 0.13
R19D	-0.006 ± 0.18
R19S	-0.101 ± 0.055
R19Q	0.046 ± 0.075
R19C	-0.089 ± 0.12
R19L	-0.025 ± 0.057
R19K	0.077 ± 0.11
R19E	0.101 ± 0.17
E20P	-0.814 ± 0.093
E20C	-0.156 ± 0.25
E20T	-0.025 ± 0.072
E20A	-0.118 ± 0.11
E20Q	-0.169 ± 0.15
E20S	-0.076 ± 0.097
E20V	-0.003 ± 0.066

Variant	abundance fitness
E20D	0.018 ± 0.24
E20L	-0.083 ± 0.059
E20Y	-0.1 ± 0.14
E20G	-0.095 ± 0.07
E20M	0.089 ± 0.086
E20F	-0.098 ± 0.22
E20W	-0.156 ± 0.093
E20R	-0.057 ± 0.056
F23T	-0.211 ± 0.12
F23G	-1.17 ± 0.19
F23P	-1.07 ± 0.22
F23R	-1.05 ± 0.17
F23Q	-0.912 ± 0.18
F23V	-0.174 ± 0.078
F23S	-0.575 ± 0.075
F23H	-0.663 ± 0.078
F23I	0.047 ± 0.18
F23K	-0.983 ± 0.41
F23A	-0.177 ± 0.092
F23C	-0.184 ± 0.11
F23L	-0.066 ± 0.076
F23E	-1.17 ± 0.31
F23W	-0.442 ± 0.085
F23M	-0.021 ± 0.15

Variant	abundance fitness
G11S	0.015 ± 0.054
G11N	0.336 ± 0.39
G11I	-0.271 ± 0.28
G11L	-0.117 ± 0.058
G11T	-0.141 ± 0.072
G11H	-0.111 ± 0.15
G11Y	-0.123 ± 0.18
G11D	-0.052 ± 0.12
G11W	-0.277 ± 0.099
G11Q	-0.006 ± 0.079
G11F	-0.039 ± 0.12
G11P	-0.536 ± 0.076
G11K	-0.054 ± 0.13
G11C	-0.106 ± 0.092
G11A	-0.058 ± 0.064
G11R	-0.074 ± 0.063
G11M	-0.223 ± 0.14
D22S	0.012 ± 0.061
D22M	-0.075 ± 0.05
D22W	-0.223 ± 0.067
D22F	-0.039 ± 0.097
D22I	-0.14 ± 0.35
D22Y	-0.158 ± 0.16
D22T	-0.048 ± 0.12

Variant	abundance fitness
D22E	-0.217 ± 0.14
D22V	-0.206 ± 0.066
D22N	-0.111 ± 0.14
D22H	-0.017 ± 0.25
D22A	-0.05 ± 0.066
D22Q	0.017 ± 0.095
D22G	-0.075 ± 0.06
D22K	-0.051 ± 0.12
D22C	-0.167 ± 0.2
L10R	-1.09 ± 0.16
L10W	-0.498 ± 0.13
L10M	-0.205 ± 0.11
L10G	-0.704 ± 0.051
L10P	-0.819 ± 0.11
L10Q	-0.791 ± 0.28
L10C	-0.184 ± 0.11
L10V	-0.014 ± 0.08
L10S	-0.668 ± 0.07
L10K	-0.911 ± 0.37
L10Y	-0.464 ± 0.14
L10D	-0.509 ± 0.2
L10H	-0.948 ± 0.37
L10A	-0.64 ± 0.099
I28R	-0.22 ± 0.056

Variant	abundance fitness
I28M	-0.064 ± 0.13
I28K	-0.633 ± 0.32
I28E	-0.171 ± 0.067
I28L	-0.05 ± 0.052
I28Y	-0.225 ± 0.12
I28S	-0.203 ± 0.073
I28P	-0.833 ± 0.12
I28H	-0.668 ± 0.14
I28V	-0.056 ± 0.066
I28A	-0.215 ± 0.078
I28T	-0.1 ± 0.12
I28N	-0.301 ± 0.14
I28Q	-0.179 ± 0.093
I28D	-0.895 ± 0.17
I28G	-0.634 ± 0.064
I28F	-0.792 ± 0.18
L21C	-0.488 ± 0.23
L21S	-0.33 ± 0.069
L21V	-0.225 ± 0.077
L21T	-0.412 ± 0.076
L21G	-0.072 ± 0.056
L21F	0.069 ± 0.17
L21M	-0.107 ± 0.088
L21A	-0.086 ± 0.061

Variant	abundance fitness
L21I	-0.268 ± 0.17
L21K	-0.32 ± 0.098
L21Q	-0.24 ± 0.095
L21E	-0.849 ± 0.14
L21N	-0.149 ± 0.45
L21W	-0.093 ± 0.08
T24C	-0.193 ± 0.18
T24E	-0.02 ± 0.16
T24N	-0.005 ± 0.088
T24V	-0.248 ± 0.079
T24H	-0.075 ± 0.28
T24W	-0.409 ± 0.1
T24P	-0.138 ± 0.059
T24K	0.162 ± 0.17
T24G	-0.014 ± 0.057
T24F	-0.053 ± 0.1
T24I	-0.154 ± 0.099
T24D	0.064 ± 0.17
T24R	-0.027 ± 0.069
T24L	-0.144 ± 0.057
T24Y	0.053 ± 0.13
T24S	-0.025 ± 0.054
T24Q	0.025 ± 0.17
T24A	-0.053 ± 0.061

Variant	abundance fitness
Q27R	-0.09 ± 0.071
Q27I	-0.039 ± 0.13
Q27A	-0.116 ± 0.081
Q27E	0.007 ± 0.071
Q27H	0.101 ± 0.14
Q27P	-0.675 ± 0.097
Q27K	0.051 ± 0.14
Q27L	-0.039 ± 0.066
Q27V	-0.042 ± 0.051
Q27T	0.1 ± 0.12
Q27G	-0.144 ± 0.06
Q27N	0.08 ± 0.41
Q27S	0.006 ± 0.071
Q27Y	-0.236 ± 0.13
Q27M	-0.006 ± 0.1
E25S	-0.038 ± 0.055
E25K	0.15 ± 0.24
E25R	-0.096 ± 0.062
E25H	-0.072 ± 0.14
E25V	-0.064 ± 0.056
E25I	0.009 ± 0.22
E25F	-0.199 ± 0.12
E25L	-0.062 ± 0.057
E25C	-0.22 ± 0.14

Variant	abundance fitness
E25D	0.016 ± 0.15
E25G	-0.074 ± 0.056
E25Q	-0.01 ± 0.11
E25A	-0.006 ± 0.054
E25N	0.108 ± 0.18
E25T	-0.065 ± 0.077
E25Y	-0.122 ± 0.12
E25M	-0.113 ± 0.074
E25P	0.021 ± 0.07
T15G	-0.042 ± 0.06
T15P	0.01 ± 0.063
T15W	-0.058 ± 0.077
T15M	-0.21 ± 0.13
T15S	0.018 ± 0.053
T15Y	-0.433 ± 0.43
T15E	-0.185 ± 0.15
T15L	0.036 ± 0.061
T15Q	-0.083 ± 0.15
T15D	-0.195 ± 0.19
T15F	-0.277 ± 0.12
T15V	-0.009 ± 0.072
T15A	-0.02 ± 0.055
T15N	-0.038 ± 0.21
T15K	0.079 ± 0.14

Variant	abundance fitness
T15H	-0.309 ± 0.2
T15C	-0.062 ± 0.12
T15R	-0.057 ± 0.059
W14Q	-0.999 ± 0.43
W14N	-0.348 ± 0.23
W14C	-0.63 ± 0.13
W14S	-0.812 ± 0.12
W14L	-0.268 ± 0.077
W14E	-1.13 ± 0.25
W14G	-0.978 ± 0.13
W14H	-0.842 ± 0.43
W14R	-0.994 ± 0.16
W14P	-0.958 ± 0.19
W14A	-0.572 ± 0.089
W14Y	-0.31 ± 0.32
W14K	-1 ± 0.41
W14V	-0.283 ± 0.058
W14F	-0.199 ± 0.17
W14M	-0.394 ± 0.18
E16F	-0.09 ± 0.13
E16P	-0.233 ± 0.075
E16D	0.053 ± 0.12
E16A	-0.037 ± 0.066
E16V	-0.104 ± 0.091

Variant	abundance fitness
E16R	0.026 ± 0.054
E16W	-0.297 ± 0.12
E16M	-0.056 ± 0.11
E16T	0.038 ± 0.12
E16L	0.032 ± 0.07
E16H	0.028 ± 0.17
E16N	0.026 ± 0.17
E16Q	0.202 ± 0.098
E16S	-0.028 ± 0.05
E16I	0.061 ± 0.22
E16G	-0.065 ± 0.057
L17S	-1.03 ± 0.12
L17N	-1.15 ± 0.42
L17P	-1.17 ± 0.2
L17W	-0.692 ± 0.11
L17I	-0.024 ± 0.18
L17E	-1.05 ± 0.43
L17T	-0.235 ± 0.086
L17C	-0.035 ± 0.089
L17G	-1.04 ± 0.094
L17H	-0.91 ± 0.38
L17R	-1.23 ± 0.12
L17M	-0.119 ± 0.11
L17V	-0.096 ± 0.078

Variant	abundance fitness
L17F	0.08 ± 0.12
L17Y	-0.478 ± 0.16
L17A	-0.134 ± 0.076
S13M	-0.129 ± 0.18
S13F	-0.036 ± 0.1
S13W	-0.17 ± 0.094
S13G	-0.035 ± 0.074
S13K	-0.224 ± 0.14
S13L	-0.306 ± 0.11
S13P	-0.291 ± 0.11
S13Y	-0.228 ± 0.2
S13Q	0.059 ± 0.17
S13C	-0.25 ± 0.19
S13V	-0.214 ± 0.099
S13R	-0.077 ± 0.084
S13A	-0.097 ± 0.081
F12A	0.038 ± 0.079
F12I	0.019 ± 0.17
F12T	-0.031 ± 0.08
F12G	0.005 ± 0.068
F12P	-0.168 ± 0.13
F12D	-0.312 ± 0.24
F12V	-0.045 ± 0.076
F12N	-0.158 ± 0.2

Variant	abundance fitness
F12M	0.028 ± 0.16
F12L	-0.068 ± 0.072
F12S	0.063 ± 0.096
F12R	-0.041 ± 0.063
F12Q	-0.132 ± 0.25
F12K	-0.143 ± 0.14
F12Y	-0.195 ± 0.25
F12E	-0.191 ± 0.15
F12H	-0.128 ± 0.2
F12W	0.005 ± 0.092
F12C	-0.04 ± 0.13
D8Q	0.234 ± 0.26
D8L	0.052 ± 0.09
D8R	0.031 ± 0.11
D8V	-0.232 ± 0.11
D8I	-0.237 ± 0.41
D8S	0.051 ± 0.17
D8K	-0.006 ± 0.17
D8G	-0.116 ± 0.12
D8P	0.011 ± 0.12
D8W	-0.342 ± 0.39
D8T	0.088 ± 0.21
